# T1: GRIP1_3, Q9Y3R0
# T1 sequence (Q9Y3R0 247-346, limits assumed, looked up): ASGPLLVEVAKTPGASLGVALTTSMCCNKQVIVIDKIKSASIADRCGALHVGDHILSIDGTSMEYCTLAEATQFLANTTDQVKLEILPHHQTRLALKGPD
# T2: MPP6, Q9NZW5
# T2 sequence (Q9NZW5 125-219, limits assumed, looked up): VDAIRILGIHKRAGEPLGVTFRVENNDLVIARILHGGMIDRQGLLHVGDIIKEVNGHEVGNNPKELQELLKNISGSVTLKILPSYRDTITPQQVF
# T3: MPDZ_12, O75970
# T3 sequence (O75970 1857-1958, limits assumed, looked up): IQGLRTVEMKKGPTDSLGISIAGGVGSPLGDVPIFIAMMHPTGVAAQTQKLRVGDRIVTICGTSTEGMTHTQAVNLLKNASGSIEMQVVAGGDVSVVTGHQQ
# T4: PARD3B_1, Q8TEW8
# T4 sequence (Q8TEW8 196-299, limits assumed, looked up): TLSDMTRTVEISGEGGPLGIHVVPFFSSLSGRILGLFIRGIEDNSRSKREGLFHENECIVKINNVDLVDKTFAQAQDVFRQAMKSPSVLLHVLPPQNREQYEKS
# T5: APBA1_2, Q02410
# T5 sequence (Q02410 742-832, limits assumed, looked up): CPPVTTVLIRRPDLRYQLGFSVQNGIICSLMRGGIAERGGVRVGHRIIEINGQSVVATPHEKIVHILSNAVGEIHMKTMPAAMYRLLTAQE
# T6: APBA3_1, O96018
# T6 sequence (O96018 389-490, limits assumed, looked up): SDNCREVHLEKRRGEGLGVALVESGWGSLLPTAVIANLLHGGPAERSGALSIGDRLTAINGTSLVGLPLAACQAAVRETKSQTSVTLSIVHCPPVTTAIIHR
# T7: DFNB31_1, Q9P202
# T7 sequence (Q9P202 135-233, limits assumed, looked up): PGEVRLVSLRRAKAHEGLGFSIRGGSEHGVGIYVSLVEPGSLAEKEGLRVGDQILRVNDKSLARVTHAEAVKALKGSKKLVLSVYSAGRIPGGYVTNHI
# T8: GRIP1_4, Q9Y3R0
# T8 sequence (Q9Y3R0 467-571, limits assumed, looked up): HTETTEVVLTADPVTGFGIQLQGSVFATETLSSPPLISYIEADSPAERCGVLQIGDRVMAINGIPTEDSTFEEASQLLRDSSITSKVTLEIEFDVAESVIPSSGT
# T9: SHANK1, Q9Y566
# T9 sequence (Q9Y566 658-767, limits assumed, looked up): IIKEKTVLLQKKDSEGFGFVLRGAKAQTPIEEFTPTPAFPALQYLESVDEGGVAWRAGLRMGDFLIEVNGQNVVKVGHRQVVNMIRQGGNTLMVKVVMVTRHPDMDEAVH
# T10: DLG3_2, Q92796
# T10 sequence (Q92796 221-321, limits assumed, looked up): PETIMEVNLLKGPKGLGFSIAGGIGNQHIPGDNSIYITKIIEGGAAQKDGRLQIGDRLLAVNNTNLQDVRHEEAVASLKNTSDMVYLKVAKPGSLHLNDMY
# T11: PDZD7_3, Q9H5P4
# T11 sequence (Q9H5P4 857-944, limits assumed, looked up): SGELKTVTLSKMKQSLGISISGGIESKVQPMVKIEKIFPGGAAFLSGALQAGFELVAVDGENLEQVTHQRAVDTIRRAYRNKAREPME
# T12: PTPN13_1, Q12923
# T12 sequence (Q12923 1088-1188, limits assumed, looked up): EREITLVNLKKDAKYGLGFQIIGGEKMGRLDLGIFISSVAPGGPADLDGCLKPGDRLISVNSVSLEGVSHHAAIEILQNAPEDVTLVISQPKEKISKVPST
# T13: PCLO, Q9Y6V0
# T13 sequence (Q9Y6V0 4491-4600, limits assumed, looked up): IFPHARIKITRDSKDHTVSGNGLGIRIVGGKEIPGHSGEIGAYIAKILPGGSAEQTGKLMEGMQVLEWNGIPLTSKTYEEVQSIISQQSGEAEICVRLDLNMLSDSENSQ
# Columns and labels:
# Assay in all cases: holdup assay
# Parameters in all cases: key: below the threshold = too weak to quantify, mostly under pKd 3.1 to 4
# [1] = target: T1, GRIP1_3, Q9Y3R0
# [2] = target: FRMPD2_3, Q68DX3
# [3] = target: NHERF2_2, Q15599
# [4] = target: DLG1_2, Q12959
# [5] = target: Inadl_6, Q8NI35
# [6] = target: T2, MPP6, Q9NZW5
# [7] = target: LAP2, Q96RT1
# [8] = target: CASK, O14936
# [9] = target: T3, MPDZ_12, O75970
# [10] = target: GIPC2, Q8TF65
# [11] = target: T4, PARD3B_1, Q8TEW8
# [12] = target: T5, APBA1_2, Q02410
# [13] = target: T6, APBA3_1, O96018
# [14] = target: T7, DFNB31_1, Q9P202
# [15] = target: Inadl_4, Q8NI35
# [16] = target: MAGI2_4, Q86UL8
# [17] = target: FRMPD2_2, Q68DX3
# [18] = target: T8, GRIP1_4, Q9Y3R0
# [19] = target: T9, SHANK1, Q9Y566
# [20] = target: T10, DLG3_2, Q92796
# [21] = target: TJP1_2, Q07157
# [22] = target: T11, PDZD7_3, Q9H5P4
# [23] = target: T12, PTPN13_1, Q12923
# [24] = target: T13, PCLO, Q9Y6V0
# [25] = plain residues with an end cap or a label only (N-terminal biotin on a linker: ado-ado)
# [26] = plain residues with an end cap or a label only (N-terminal biotin on a linker: ttds)
# [27] = plain residues with an end cap or a label only (N-terminal biotin on a linker: ahx)
# Sequence of TJP1_2, Q07157 (Q07157 181-274): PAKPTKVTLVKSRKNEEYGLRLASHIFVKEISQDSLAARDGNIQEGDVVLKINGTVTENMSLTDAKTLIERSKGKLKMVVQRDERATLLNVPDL
# Sequence of Inadl_6, Q8NI35 (Q8NI35 1058-1167): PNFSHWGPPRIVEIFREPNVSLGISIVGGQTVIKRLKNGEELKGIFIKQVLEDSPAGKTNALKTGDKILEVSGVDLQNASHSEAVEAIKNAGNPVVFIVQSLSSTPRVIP
# Sequence of MAGI2_4, Q86UL8 (Q86UL8 772-865): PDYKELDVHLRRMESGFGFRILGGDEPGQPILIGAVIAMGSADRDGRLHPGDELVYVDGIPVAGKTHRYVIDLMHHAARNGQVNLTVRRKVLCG
# Sequence of Inadl_4, Q8NI35 (Q8NI35 547-651): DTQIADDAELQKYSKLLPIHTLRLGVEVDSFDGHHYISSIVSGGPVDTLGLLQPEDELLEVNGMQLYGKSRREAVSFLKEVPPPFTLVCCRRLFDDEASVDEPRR
# Sequence of NHERF2_2, Q15599 (Q15599 142-238): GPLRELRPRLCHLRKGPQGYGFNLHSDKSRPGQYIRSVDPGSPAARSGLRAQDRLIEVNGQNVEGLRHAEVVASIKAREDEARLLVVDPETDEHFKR
# Sequence of GIPC2, Q8TF65 (Q8TF65 112-203): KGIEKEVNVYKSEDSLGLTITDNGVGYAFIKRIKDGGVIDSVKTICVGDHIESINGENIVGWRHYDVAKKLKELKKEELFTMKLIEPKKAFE
# Sequence of FRMPD2_3, Q68DX3 (Q68DX3 1073-1166): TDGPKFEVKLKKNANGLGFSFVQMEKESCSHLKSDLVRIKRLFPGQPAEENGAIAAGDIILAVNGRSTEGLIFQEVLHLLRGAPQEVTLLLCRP
# Sequence of DLG1_2, Q12959 (Q12959 314-412): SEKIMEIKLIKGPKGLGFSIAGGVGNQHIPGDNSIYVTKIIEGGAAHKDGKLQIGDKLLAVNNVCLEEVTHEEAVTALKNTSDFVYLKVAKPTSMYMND
# Sequence of FRMPD2_2, Q68DX3 (Q68DX3 944-1038): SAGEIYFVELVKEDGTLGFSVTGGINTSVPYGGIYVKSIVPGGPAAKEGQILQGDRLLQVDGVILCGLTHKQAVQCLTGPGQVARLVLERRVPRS
# Sequence of CASK, O14936 (O14936 487-570): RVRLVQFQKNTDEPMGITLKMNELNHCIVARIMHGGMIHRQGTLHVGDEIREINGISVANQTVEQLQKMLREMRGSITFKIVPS
# Sequence of LAP2, Q96RT1 (Q96RT1 other isoform, or with tags, fused parts or gaps): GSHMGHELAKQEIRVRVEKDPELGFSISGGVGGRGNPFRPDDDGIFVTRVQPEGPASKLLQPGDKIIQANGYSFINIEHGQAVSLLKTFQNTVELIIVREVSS
binder,measurement,setting,value
"SVVSERISSV [HTR2C, P28335]",pKd,[1]; [25],below the threshold
same,pKd,[2]; [25],below the threshold
same,pKd,[3]; [25],below the threshold
same,pKd,[4]; [25],4.74
same,pKd,[5]; [25],below the threshold
same,pKd,[6]; [25],below the threshold
same,pKd,[7]; [25],below the threshold
same,pKd,[8]; [25],below the threshold
same,pKd,[9]; [25],below the threshold
same,pKd,[10]; [25],below the threshold
same,pKd,[11]; [25],below the threshold
same,pKd,[12]; [25],3.87
same,pKd,[13]; [25],below the threshold
same,pKd,[14]; [25],below the threshold
same,pKd,[15]; [25],below the threshold
same,pKd,[16]; [25],below the threshold
same,pKd,[17]; [25],4.25
same,pKd,[18]; [25],below the threshold
same,pKd,[19]; [25],below the threshold
same,pKd,[20]; [25],4.68
same,pKd,[21]; [25],below the threshold
same,pKd,[22]; [25],4.26
same,pKd,[23]; [25],below the threshold
same,pKd,[24]; [25],below the threshold
"SPLHSLETSL [ATP2B1, P20020]",pKd,[1]; [26],below the threshold
same,pKd,[2]; [26],below the threshold
same,pKd,[3]; [26],4.87
same,pKd,[4]; [26],4.67
same,pKd,[5]; [26],4.31
same,pKd,[6]; [26],below the threshold
same,pKd,[7]; [26],3.8
same,pKd,[8]; [26],below the threshold
same,pKd,[9]; [26],below the threshold
same,pKd,[10]; [26],3.88
same,pKd,[11]; [26],4.02
same,pKd,[12]; [26],3.93
same,pKd,[13]; [26],3.47
same,pKd,[14]; [26],4.22
same,pKd,[15]; [26],below the threshold
same,pKd,[16]; [26],3.48
same,pKd,[17]; [26],3.48
same,pKd,[18]; [26],below the threshold
same,pKd,[19]; [26],4.71
same,pKd,[20]; [26],4.35
same,pKd,[21]; [26],below the threshold
same,pKd,[22]; [26],4.63
same,pKd,[23]; [26],below the threshold
same,pKd,[24]; [26],below the threshold
"KTSAHHATFV [RGS12, O14924]",pKd,[1]; [27],below the threshold
same,pKd,[2]; [27],below the threshold
same,pKd,[3]; [27],below the threshold
same,pKd,[4]; [27],4.15
same,pKd,[5]; [27],3.94
same,pKd,[6]; [27],below the threshold
same,pKd,[7]; [27],4.34
same,pKd,[8]; [27],below the threshold
same,pKd,[9]; [27],3.78
same,pKd,[10]; [27],below the threshold
same,pKd,[11]; [27],below the threshold
same,pKd,[12]; [27],4.87
same,pKd,[13]; [27],below the threshold
same,pKd,[14]; [27],3.61
same,pKd,[15]; [27],below the threshold
same,pKd,[16]; [27],4.13
same,pKd,[17]; [27],4.72
same,pKd,[18]; [27],below the threshold
same,pKd,[19]; [27],below the threshold
same,pKd,[20]; [27],3.92
same,pKd,[21]; [27],below the threshold
same,pKd,[22]; [27],4.31
same,pKd,[23]; [27],below the threshold
same,pKd,[24]; [27],below the threshold
"IQREDQETAV [DGKZ, Q13574]",pKd,[1]; [26],below the threshold
same,pKd,[2]; [26],3.71
same,pKd,[3]; [26],4.01
same,pKd,[4]; [26],5.16
same,pKd,[5]; [26],4.02
same,pKd,[6]; [26],below the threshold
same,pKd,[7]; [26],4.54
same,pKd,[8]; [26],below the threshold
same,pKd,[9]; [26],below the threshold
same,pKd,[10]; [26],3.67
same,pKd,[11]; [26],below the threshold
same,pKd,[12]; [26],4.2
same,pKd,[13]; [26],below the threshold
same,pKd,[14]; [26],4.81
same,pKd,[15]; [26],below the threshold
same,pKd,[16]; [26],below the threshold
same,pKd,[17]; [26],4.93
same,pKd,[18]; [26],below the threshold
same,pKd,[19]; [26],4.3
same,pKd,[20]; [26],4.88
same,pKd,[21]; [26],below the threshold
same,pKd,[22]; [26],4.32
same,pKd,[23]; [26],below the threshold
same,pKd,[24]; [26],below the threshold
"SSSNSEDTEM [NHERF3, Q5T2W1]",pKd,[1]; [27],below the threshold
same,pKd,[2]; [27],below the threshold
same,pKd,[3]; [27],4.25
same,pKd,[4]; [27],below the threshold
same,pKd,[5]; [27],below the threshold
same,pKd,[6]; [27],below the threshold
same,pKd,[7]; [27],below the threshold
same,pKd,[8]; [27],below the threshold
same,pKd,[9]; [27],below the threshold
same,pKd,[10]; [27],below the threshold
same,pKd,[11]; [27],below the threshold
same,pKd,[12]; [27],below the threshold
same,pKd,[13]; [27],below the threshold
same,pKd,[14]; [27],below the threshold
same,pKd,[15]; [27],below the threshold
same,pKd,[16]; [27],below the threshold
same,pKd,[17]; [27],below the threshold
same,pKd,[18]; [27],below the threshold
same,pKd,[19]; [27],below the threshold
same,pKd,[20]; [27],below the threshold
same,pKd,[21]; [27],below the threshold
same,pKd,[22]; [27],below the threshold
same,pKd,[23]; [27],below the threshold
same,pKd,[24]; [27],below the threshold
"MERLRVETDV [ARHGEF16, Q5VV41]",pKd,[1]; [26],below the threshold
same,pKd,[2]; [26],below the threshold
same,pKd,[3]; [26],below the threshold
same,pKd,[4]; [26],5.5
same,pKd,[5]; [26],below the threshold
same,pKd,[6]; [26],below the threshold
same,pKd,[7]; [26],4.39
same,pKd,[8]; [26],below the threshold
same,pKd,[9]; [26],below the threshold
same,pKd,[10]; [26],3.75
same,pKd,[11]; [26],below the threshold
same,pKd,[12]; [26],3.86
same,pKd,[13]; [26],below the threshold
same,pKd,[14]; [26],below the threshold
same,pKd,[15]; [26],below the threshold
same,pKd,[16]; [26],3.99
same,pKd,[17]; [26],3.74
same,pKd,[18]; [26],below the threshold
same,pKd,[19]; [26],below the threshold
same,pKd,[20]; [26],5.61
same,pKd,[21]; [26],below the threshold
same,pKd,[22]; [26],4.08
same,pKd,[23]; [26],below the threshold
same,pKd,[24]; [26],below the threshold
